In the domain aggregation screens of Martell et al. (2025):

Experiment: soluble fraction after stress (log2 fold change); higher = more stays soluble; pooled small domains, quantitative proteomics
Conditions: stress: 50 degC
Procedure, shortened: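 The stress applied to every library was 50°C. These custom libraries of small protein domains were pooled and measured at high throughput with quantitative proteomics as the read-out. Aggregation propensity is expressed as the base-two logarithm of the fold change in how much of each protein remains soluble. The higher the value, the more of that protein stays in solution.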

Row | Sequence | soluble fraction (log2)
1 | HMTNALDMMKTMDSDAYTKYQKISKESSNEDRQLNELKYITNWYAGAVKKNPSMVDDYEKQKEADS | 0.159
2 | HMSEKELTDLIERIKERRLKLEMSYQDLSDATGISKSTLQRYETGYIKKVPINQIEILAKALHTTPSYLMG | -0.238
3 | HMGLDNEGFERLRQKITRLLSEEALPVKELVDSFASKMRQEVLETLAFLQQEGVIEEKNGKLFLK | 0.0365
4 | HMDIKEIIKNRRIELGLTLKEVATAVGVSEGTVSRWESGNITNMKRNKIAALAKTLQIPPTTI | -0.259
5 | HMGSLVKLQSAAELHQAGRSAEAVPILLEVLATNPRLVDGWEILANALEKLGRLDEALAALKKTVALSPPG | -0.694
6 | HMLTEERLQIITDTVNSRSSVTIAELSRILDVSPSTVKRDLNILAEAGKITKVRGGAIALGE | -0.0232
7 | HMNNLVTRREVEILGWIKEGKTTSDIAGILSLSPFTVKNHVQNILKKLGARSRSHAVAQAINLGLLH | -0.773
8 | HMQITDTEAIATTLDEIIAANPKEWERLKAGQEQLVKFFVGQVMRVTKGRANPQVVNDLLKERL | -0.075
9 | HMSRVFSPSELEIRHAQDVFQALEEAKRQGKGAVSLNGKMIDAPIVARAKLVLEAAAAIYGED | -0.362
10 | HMASQEESVATYIQDYYRNPKTGESMVSDDMVEEFYKTHPEWEDQADGSKEGMEAVLDNFNEFFEINYG | 0.0827
11 | HMKQDFVYNGFVEAKGDDLMVQINYKGETYYVTEGESFGGFTVKSANKDKVVLSGQGGAETVLEFR | -0.106
12 | HMDAYDEVTTLSQMVASGKNTTVAHLKHLKEYHQTDYLRQAVEWLLSNRKNVSFSVDEVMQEVHN | -0.0339
13 | HMETADREILLREIREIINERVDYNKDITDDEMKELVMNTVFERSRQQYMSIQDKQEIIQAIFNSMR | 0.126
14 | HMPPITIVPNDNGVPIIRSQTPEISTAVNVELKAAGINTHTIDGTSIRVPKAQAQVAQQIVSRVNTRFT | 0.158
15 | HMKIIDDIQEFAGVTKTQNTFFHIFNHLHQNGKQLILTSDRAPVMLQGMEERLLTRFKWGLVAELE | 0.257
16 | HMNEDDQLLKVLLAEPLRLEELYNLDLKPQGPYNLQTWIMVHLTELERDGLIARFPDGRYGPAR | -1.36
17 | HMFSPTKLKEKRESQGLSQSQLASSLGISRASYFNWESGKTKPNQNNLSKLSEILNVDPRYF | 0.355
18 | HMTFPAILRELLEKHPQTGKRTTLKELGEAVGTRQQSISLYRNGDTQPSPDILVRIAAFFGVSVDYLL | -0.419
19 | HMLSVLKNVDVNSLSDDKIKTYWQQIQKSGYTLDEVEVLAEAQGISPLKIAAFKRRVQSLQQSLQT | 0.199
20 | HMRYQIAEARKLRDITQAELAEKMGTTQQTIQRYETNQVNIRMDKMIEMSEILNVSLAYLLGMSSSPEL | -0.901
21 | HMYPGQILEIYLDEIKRLYLNGLSSADIFAEIKEGSIPSVKKAIRSMKDGSAPVKITEAEESTRIAPS | -0.441
22 | HMLIELKIPSEWAGKSLHTLNLRQNYNVNVIGFRDEKSGKLNTHFDPSKKLPDEGIILVVADNRTLEKF | -0.837
23 | HMPRENLAYTLIMDGIVQHKNLPRASVTEAWLKQELQKAGINDFRQVLIAGIDSKGQLYFQPKQK | 0.528

Row | Sequence | soluble fraction (log2)
24 | HMSMFSEILRTLRKAKGLTQRELAGHLGVTQQMVAKWEKGQSTPGPDQLTRMAELLEVSTDTLLGR | -0.162
25 | HMYMKGKVKWFDSKKGYGFITSENGKEIFVHFSGIAAKGFKSLNEGQTVEFEVANGAKGEQAVNVTV | -0.804
26 | HMTSNIIIVPNVVGMTKEQATAALAAAGLNIKLSGVETTDTAAVAVKQKPSANTKVEEGSVVTVEFDLK | 0.0533
27 | HMSLGSNISRLRAEKHLSQGDLAEALDVSRQSVSKWETDGSVPDLDKLVKLSRIFGVTLDELVTGTP | 0.0174
28 | HMGESEWIVKWRGEKRDEERLQESELVRDDPEHRISVVRPRDDVDASAWLNRWRKSRYVQYIQPNHRVTIS | 0.0613
29 | HMSVRPMVEILRVVGSPSPVWVTWARNRAAWLYETGIRPQQRLRMADGTEVLIRLVGEFAHILVVGG | -0.31
30 | HMGAARVTPLYNLRLREGPSTATARLDVVPRGTTLEVRAWDETGDWAQVEYRGQIGWIAAWLAEVEGEAP | -0.136
31 | HMREFQVMKQELQEMVHQRLDMSTELSDEAIGDVIDEVIMEKSRNMYISSVTKLTLRQELFNAIR | -0.629
32 | HMNVVINNELVSLMVEAMKDGVSSKSIQEEFEGYKISGKTITKKVLTAHVNKALEVFADMQE | -0.213
33 | HMAAQDLIVKTDASQVEARVLEISPDAVRYKRFSNPDGPTYVLPVAEIRYIRYANGEVEYYA | -0.0166
34 | HMEQFRENIVRIYMEIDDYENGAKFLEMGNNRDASFYELAGDFYKYFGENELANENYDLAISA | -0.387
35 | HMPSSFLVKVTADALNIRSGPGVANRITGTIKDKGTYTIVDTKDDWGKLKSGVGWIHLGYTKRLD | -0.33
36 | HMNDLIFSTLAEYDRDTITEIISVVDNTRGIGYEVELVRKDLIAMAAQAEARRDYLPSVIGDVEVFKRNLL | 0.0286
37 | HMEFEIGQEDSKKSVKQFLYNTLRLSHGQVTALKRQERGILLNGERVFVTALLQEGDRLSLLLE | -0.342
38 | HMEQVQQIPIEELFPFKEHPFKVLDDEAMQRTVESVAQYGVLAPLIARPRPEGGYEIISGHRRQHAAELYR | -0.0852
39 | HMKMQPVISQGVLYINNVTDVRTIEVFDISGRIVADAAASTTVNIAHLNEGPYIVKVTTVNGIESIKILNK | -0.223
40 | HMSNMESLIGREATVIEMIPAEDVGRVKIDGDEWQAVLAREDDNEPRRDIQVGEKVIIVSYDSIILTVKTK | 0.0115
41 | HMSDNLSASERKALSHMEGMESVRSSEVADLLGMSQRGAQKLLNRLVDKGLASSFGANRNRRYSVE | 0.306
42 | HMDKSPVLQLNRDVPAGQQISADDFRTVEIGADGAFRSVPSSDLNAMVGSYAKVRLIAGTLLAREALQSG | 0.0412
43 | HMKKTAAKVLGESEGKPVTVQSGRYGPYVQLGSIRATLPKDLEQDDVTLDRALELISAKAERAGK | 0.122
44 | HMIAGHLQIKNDYYYMVLSYTDSDGKRKQPWIPTGLPMKGNKKRAEKMLIETRQTYVPPVSSG | -3.27
45 | HMNKFKVNERVRVIATGEIGIVKGREILPVEGSKRVNIEYLVKVGNGFSNWKAFSKKELEPVR | -1.18
46 | HMLIIDLPDFTNKKLSELQQWADANQITLKIVEKDVSSKPYDTILEQTPAKNKYEKIVKGSTMTVTVNIK | -0.562

Row | Sequence | soluble fraction (log2)
47 | HMEIITIVSDINGKRIDAWLSEKLENYSRSFIQKLIQNENVKVNNNIVKANYKLKNGDAVAVSIPEPV | ≥ 0.62
48 | HMQVPFGFQRNPSTGTLEEKAEEQLIINQVLSLKNSGIGVSEISKRLGELSVSRIYRIINTAKKNAS | -0.366
49 | HMILESREKYLGEVLEVLVEEEKEGEYFGYSQNYLRVKFKLEEKNLINQLINIKIKSIEDDILIGEKEN | -1.46
50 | HMGDLVFDFVHGVHKAAEVEKELVMQALRFTHGNVSRAARLIGMQRSSLRYRIERYRLDAFVMEVAN | 0.3
51 | HMGIRAFDPEAFDERLKEFFSMIAPYKKLDTRSLQPHFPHHAKEVAERIRQLAEAGKIKVDGFYISEL | -0.108
52 | HMPDLKIGKDHRLAEYIETKIAEDGYSPGAVLGEIKAKGLEFETEISKPTLYSYIDKGIFLTITNKELPV | 0.105
53 | HMTDDPGLSRAENRELQTLLLDRGHDIGQPDGLIGAKTRAAIRAEQSRLNMPVNGRGGQKLLRALRL | 0.372
54 | HMKDITPASEDQLKAITDLMLKVNGEWSDAFFTFISKKFNHQISSPEQLTTFEANTIIDMLRKKAEG | 0.192
55 | HMNGELSQRQWQILRLIAQGLSNEQMARQLFVAPSTIKTHINHLYAKLGVRTRAEAQAIARQKLMA | -0.619
56 | HMSLSNMIGKNIQWTHVTKTKDAEGNPKTNSETFAGNVRGVKVLNGKPMVVAQDAKGKLHEVEVSEIEAIA | 0.234
57 | HMPTERLSMRRIRELLRLRFEVGLSTRLIATALGISKGAVGDYLQRAQVAGLGWPLPENLNDAALERRLFP | -0.681
58 | HMNSVSARRSAAITAISTGRIHSQEDLVQALKKAGYPVTQATASRDIEEIGAVRIRNQKGEMVYAIS | 0.264
59 | HMQQLAEQIPTDRPYISIAEAVVLFGISRDTIYRQIRKGNIPAVNLGERLTRISRIHIEAMFPKV | -0.563
60 | HMKSLLSRREQEVLELVSRGFSYSEIAELKNLSVHTIQTHIKSLYGKLEVHSKMEAVLEATRMGLLPQ | -1.8
61 | HMGDTIFINNNFYVKHIVEFGETIDIISKIYDVSVNKILETNETSTKLYSGQSLFIPININV | -3.4
62 | HMSAAYVYVTGTRVNQRDGPSTFDRVMGVLVEGTRVQLLRDQGQWAQIRSDLGTGWLSSGFLSRNG | -1.87
63 | HMFTLNEIIGQKIRNARISAGLTLDELSKMTGISAAQLSSLETGYRRANIDTLYAIAKAIGIDVSNLLKY | -0.46
64 | HMGRHSPLSIEQKEQLKTEIVALQQQRGGGRVTAVNIAELIQQKFNVVYNPNSLYKLLKQIGMSWV | -1.2
65 | HMGVKIELNENEQAIFAAMQKQVEAVLPDLRAQFADMSNKAWDNSVKTLTKNNLLKVSKEAEILFIRL | -0.718
66 | HMLKFPIGTHVGKKKPSANLSLPNKHGVVIGHGERRNAKGAIMRFYIVETTHSSRPEEWAPGITYPL | -2.5
67 | HMAQLSDMLTYLRKRKGLSQQELANTLKISRSAIGMYETGKREPDLETLEVFADFYNVDMNTLTGKA | -0.143
68 | HMSVTRELMLVKVKVTPEQRAGVSAIVDIFRANIIDVGKESMIIELTGNKSKLEAFIDLLDGYEILELART | -0.861
69 | HMPSHALFWTLLKEVPGYDPHYKDVIKEGIVHEHSGGRTTSLSEMYTKYPREYSLMIEAMKG | -0.487
